4 molecules from paper PMC5827114, “A cryptic RNA-binding domain mediates Syncrip recognition and exosomal partitioning of miRNA targets” can be followed below.

A word on the Kd: it is the free concentration of one partner at which half of the binding sites on the other are occupied at equilibrium, for simple one-to-one binding.

The target in data set [1] is T1, Syncrip NeR1R2R3 (Homo sapiens, UniProt O60506 16-428).
T1 sequence: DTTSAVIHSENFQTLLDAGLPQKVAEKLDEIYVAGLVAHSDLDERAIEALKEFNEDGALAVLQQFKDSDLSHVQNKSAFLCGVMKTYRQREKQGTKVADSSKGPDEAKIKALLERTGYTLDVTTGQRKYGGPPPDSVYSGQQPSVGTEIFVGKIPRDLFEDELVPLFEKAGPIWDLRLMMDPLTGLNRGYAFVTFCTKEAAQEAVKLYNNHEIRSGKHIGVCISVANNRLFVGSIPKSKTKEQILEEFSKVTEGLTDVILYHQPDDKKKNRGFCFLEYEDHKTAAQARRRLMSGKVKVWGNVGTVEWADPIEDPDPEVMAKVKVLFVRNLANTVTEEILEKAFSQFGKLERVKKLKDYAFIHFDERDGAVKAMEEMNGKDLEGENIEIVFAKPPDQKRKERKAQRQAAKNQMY
The experiment in a line: BLI; BLI: 5 mM Tris-HCl pH 7.4, 50 mM NaCl, 1 mM TCEP, 0.5 mg/mL BSA, 30 C; NMR: 5 mM Tris-HCl pH 7.4, 50 mM NaCl, 0.5 mM TCEP. Particulars: protein: recombinant; tags: His6-SUMO or His, removed by HRV 3C; label: 5'-biotin. A general note: Biolayer interferometry detects binding as a change in optical thickness at a sensor tip.

The target in data set [2] is T1, Syncrip NeR1R2R3. The description is as above. Particulars: protein: recombinant; tags: His6-SUMO or His, removed by HRV 3C; label: 5'-biotin (BLI).
Data set [3] deals with T2, Syncrip NURR domain (N) (Homo sapiens, UniProt O60506 16-109).
T2 sequence: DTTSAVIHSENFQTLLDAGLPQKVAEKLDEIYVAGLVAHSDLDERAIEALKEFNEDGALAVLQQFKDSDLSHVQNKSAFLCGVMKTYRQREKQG
The data set is described as above. Particulars: protein: recombinant; tags: His6-SUMO or His, removed by HRV 3C; label: 5'-biotin.

For data set [4], the target named is T2, Syncrip NURR domain (N). The data set can be described thus: NMR; BLI: 5 mM Tris-HCl pH 7.4, 50 mM NaCl, 1 mM TCEP, 0.5 mg/mL BSA, 30 C; NMR: 5 mM Tris-HCl pH 7.4, 50 mM NaCl, 0.5 mM TCEP. To be noted: protein: recombinant; tags: His6-SUMO or His, removed by HRV 3C.
The target in another data set is T3, Syncrip NeR1 (Homo sapiens, UniProt O60506 16-242).
T3 sequence: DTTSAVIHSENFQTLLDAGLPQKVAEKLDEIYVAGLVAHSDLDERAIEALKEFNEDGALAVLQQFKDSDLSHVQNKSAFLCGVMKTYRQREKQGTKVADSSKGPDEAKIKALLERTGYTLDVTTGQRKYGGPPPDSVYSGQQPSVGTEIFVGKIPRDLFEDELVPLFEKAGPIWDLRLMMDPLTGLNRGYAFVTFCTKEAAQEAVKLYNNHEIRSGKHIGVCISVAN
The data set can be described thus: NMR; 50 uM protein, 1:1 and 1:2; BLI: 5 mM Tris-HCl pH 7.4, 50 mM NaCl, 1 mM TCEP, 0.5 mg/mL BSA, 30 C; NMR: 5 mM Tris-HCl pH 7.4, 50 mM NaCl, 0.5 mM TCEP. To be noted: protein: recombinant; tags: His6-SUMO or His, removed by HRV 3C.

The target in data set [5] is T1, Syncrip NeR1R2R3. The data set can be described thus: NMR; only NURR resonances shift; BLI: 5 mM Tris-HCl pH 7.4, 50 mM NaCl, 1 mM TCEP, 0.5 mg/mL BSA, 30 C; NMR: 5 mM Tris-HCl pH 7.4, 50 mM NaCl, 0.5 mM TCEP. To be noted: protein: recombinant; tags: His6-SUMO or His, removed by HRV 3C.
In the next data set the target is T4, Syncrip NeR1 R60A G97L (Homo sapiens, UniProt O60506 16-242, R60A;G97L).
T4 sequence: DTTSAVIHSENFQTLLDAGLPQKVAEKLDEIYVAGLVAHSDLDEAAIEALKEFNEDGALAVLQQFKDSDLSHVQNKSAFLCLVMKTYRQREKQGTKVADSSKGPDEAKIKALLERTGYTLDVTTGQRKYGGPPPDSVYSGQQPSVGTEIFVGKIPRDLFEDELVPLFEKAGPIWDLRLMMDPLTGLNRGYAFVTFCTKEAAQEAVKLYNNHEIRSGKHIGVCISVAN
The experiment in a line: NMR; 50 uM protein, 1:1 and 1:2; legend: binding eliminated (text: impaired); BLI: 5 mM Tris-HCl pH 7.4, 50 mM NaCl, 1 mM TCEP, 0.5 mg/mL BSA, 30 C; NMR: 5 mM Tris-HCl pH 7.4, 50 mM NaCl, 0.5 mM TCEP. Particulars: protein: recombinant; tags: His6-SUMO or His, removed by HRV 3C.

In the case of UCACUUUGUAGACCAAGUGUU (ssRNA) [chimera miR-3470 (delta-hEXO mutant)], the “fold loss of affinity vs miR-3470 wild type” value in the data set with Syncrip NeR1R2R3 [1] was ~6 fold lower affinity than miR-3470 wild type. For the molecule UCACUUUGUAGACCAGGCUGG (ssRNA) [miR-3470 full-length], the Kd with Syncrip NeR1R2R3 [2] was determined as 0.002 ± 0.0002 µM. Consider GUAGACCAGGCUGG (ssRNA) [14mer miR-3470], for which the Kd with Syncrip NURR domain (N) [3] came to 29 ± 2 µM. For AGGCU (ssRNA) [hEXO-motif RNA], the binding result with Syncrip NURR domain (N) [4] was “binds”; with Syncrip NeR1 it was “binds”; in the data set with Syncrip NeR1R2R3 [5] it was “binds”; with Syncrip NeR1 R60A G97L it was “no binding”.
